According to the DeepSol protein solubility set:

Experiment: soluble on expression in E. coli; label from the status in PepcDB or PDB records

Soluble on expression in E. coli, not soluble:
MGSDKIHHHHHHMAKNKTAYVCNECGQDFPRWQGQCSACQEWNTITEVRLGAASPGRSTKFVGYAGASSNEVKTLDQIDLNAMPRILSHFGELDRVLGGGIVPGSAILIGGHPGAGKSTLLLQTLCHLAEQMPALYVTGEESLQQVAMRAHRLGLPTNKLRMLSETSVEQICEVALKELPKVIVVDSIQVMHMSDVASSPGSVSQVRESASYLTRFAKENGIAVIMVGHVTKDGSLAGPKVLEHCIDCSVMFEGDSDSRYRTLRSHKNRFGAINELGVFAMTERGLKEVANPSAIFLSRGEEESSGSLVMVVWEGTRPLLVELQVLVDNSAMSNPRRVAVGMDANRLAMLLAVMHRHGGLQMSDQDVFVNVVGGVKVTETSADLTLLLAMVSSFRGDILPSDLVAFGEVGLSGEIRPVPNGQERLIEAAKHGFKRAIVPKANVPKKPPAGMEVVGVSKLSEALEAI
MGSDKIHHHHHHMAKYEQLAQELKTRIAQGVWQAGDKLPSLRQTVADSGLSLMTVLNAYQLLESQGVISAQAKSGYLVAPKPELIARQGEAFRYPERQKPIYLSDSVDINEFVFNVLQASKQADIVPFGSGFPDPSLFPQQALARSLVKVTRHMSPSFAADNLPPGNAGLRKAISQRYAKLGMSISPDEIIITSGAMEALNLSLATLTQAGDWVVIESPTFYGAMQAIERLKLKAIAVATDPQQGIDLEALAEVLKTYPVKACWLMSQHQNPLGCSLSDTKKQALYQLLNEHKVSLIEDDVYQELYVDSSAPRSVKAFDTEGRVLHCGSFSKSLIAGYRVGWVAAGCHAPQLQRLQVMSTLSTSAPMQLAIADFIQSAQYERHLKQLRKKLASRKLAMYQLLCAHLPESVGVNFAQGGYFLWLALPAHMDATQIYYQAIERGISIAPGNLFSNQVEFRHFMRLNASYECSSEIVSAVMVLAELIRNYSRRS
MGSDKIHHHHHHMALFEGYERRIDGINTVLKKYGMNSIEDAKKVCDEKGINVYDIVRSIQPICFENACWAYTLGAAIAIKNGCTSASDAAKNIGEGLQAFCIPGSVADDRKVGLGHGNLGAMLLSEDAKCFAFLAGHESFAAAEGAIGIAKSANKVRKEPLRVILNGLGKDAAQIISRINGFTYVQTQFDYYTGELKIVKETAYSKGERAEVRCFGADDVREGVAIMHHEGVDVSITGNSTNPTRFQHPVAGTYKKECFEMGKKYFSVASGGGTGRTLHPDNMAAGPASYGMTDTMGRMHSDAQFAGSSSVPAHVDMMGLIGMGNNPMVGATVAVAVAIEEAMK
MGSDKIHHHHHHMALKEEIYYNSPIFIQNILTSMYGKKLMQERYGPGYEKKLQELRVKDRTVDYRIEQLERLNTFLLFIQEHTPYYRKLFQEHDIRLPFTSLDQLQTIPILEKETLRQQNEAFMSEVDAPVRGRTGGTSGKSLQVAFMREDVQERMAHLDYFKELHGFRSGMRRASFTGRTLTAINQKKPIFWRKNRPLNQLLLSIFHMKEENFPAYIEELNRFRPAALDGTPTAMLEIALYLLKHELRLDFPLVAIFPTSETVTPEMRRLLEEAFQAPVFDQYGSSEGAPIISECRERKLHLHHETGIIEPYGDGGEVVVTCFTTRGTPLVRYRIGDRMTLGQEACTCGLNGPVIESIDGRGTSYIVSEKRGKVFEGDITTIARELPNSVLRLQVEQHELNHVTLRYIPDEQRFVPKHEKILLREMQKLLGSSMKVTLEPVQQMKQEPNGKTLIVKQSMK
MGSDKIHHHHHHMALLEVHNLNKRFTDHISLFHKQRFYAVKNISFNLNEGETIAIIGENGAGKSTLAKMIAGITKPTSGDMFFRYKKLTYGDYQFRTKHIRMMFQDPNHTFNPNHNIGQILDAPLRLATDMNEQERNECIFNTLKLVGMYPEYALIPIKETSTSQKQRIALARALILSPEIIIADDTLSTLDFSVKTQLTNLMLNLQEKLGIAFIYVGQHLGIIKHIADKLIIMHQGEAIEYGDTKEVLLNPQNPITARLIESHFGKMLTEDAWAK
MGSDKIHHHHHHMALLFSGGTMSQVQSGILPEHCRAAIWIEANVKGEVDALRAASKTFADKLATFEAKFPDAHLGAVVAFGNNTWRALSGGVGAEELKDFPGYGKGLAPTTQFDVLIHILSLRHDVNFSVAQAAMEAFGDCIEVKEEIHGFRWVEERDLSGFVDGTENPAGEETRREVAVIKDGVDAGGSYVFVQRWEHNLKQLNRMSVHDQEMVIGRTKEANEEIDGDERPETSHLTRVDLKEDGKGLKIVRQSLPYGTASGTHGLYFCAYCARLHNIEQQLLSMFGDTDGKRDAMLRFTKPVTGGYYFAPSLDKLMAL
